Data on one molecule can be found in patent US20230391872A1 (ANAPTYSBIO, published 2023).

In assay [1] the target is T1, human BTLA on cells (stably transfected 293c18 cells; human peripheral blood T and B cells) (human, UniProt Q7Z6A9 31-289).
T1 construct: whole, on cells; the cells are named under assay; also called cell surface BTLA; full-length human BTLA
Put plainly: flow cytometry, DyLight 650-labeled 6G3 IgG4 on human peripheral blood CD4+ T cells. How it is done:
(§1) PBMCs were washed and incubated at 2×10⁷ cells/ml in FACS buffer (PBS, 1% BSA, 0.02% sodium azide) with Human BD Fc Block (2.5 μg/1×10⁶ cells, BD Biosciences) and LIVE/DEAD® Fixable Yellow Dead Cell Stain (30 μl, ThermoFisher Scientific) for 10 minutes on ice. Cells were washed once in FACS buffer, resuspended in FACS buffer at 1×10⁷ cells/ml and the following phenotyping antibodies added: Alexa Fluor 488-anti-human CD3E clone SK7, Brilliant Violet 421-anti-human CD4 clone OKT4, Brilliant Violet 785-anti-human CD8 clone SK1, and Brilliant Violet 570-anti-human CD20 clone 2H7 (50 μl each; all from BioLegend, Inc.). […] Samples were washed twice in FACS buffer, resuspended in 150 μl/well FACS buffer, and analyzed for fluorescence on a NovoCyte Flow Cytometer (ACEA Biosciences, Inc.). Data were analyzed using NovoExpress Software (ACEA Biosciences, Inc.). Median fluorescence intensities of anti-BTLA or isotype staining on gated CD4⁺ T cells (FIG. 4), CD8⁺ T cells (FIG. 4), or CD20⁺ B cells (FIG. 4) were graphed and curves fit with log(agonist) vs. response (three parameters) least squares fit for EC₅₀ calculation in GraphPad Prism (GraphPad Software, Inc.).

In assay [2] the target is T1, human BTLA on cells (stably transfected …). Put plainly: flow cytometry (MFI DyL650) on gated CD8+ T cells of human PBMC, DyLight 650-labelled antibody, three-parameter fit [middle panel (Naive CD8+ T cells]. How it is done:
as §1, with “Human peripheral blood mononuclear cells (PBMCs) were isolated by Histopaque (Sigma-Aldrich) density-gradient centrifugation of normal donor blood obtained from the San Diego Blood Bank (San Diego, CA). PBMCs” for “PBMCs”

B1: 6G3 IgG4 anti-BTLA antibody (APE10840 / APE12839 / APE13308) (antibody, V domains shown)
VH: QVQLVQSGAEVKKPGSSVKVSCKASGYVFSTSWMNWVRQAPGQGLEWMGRIYPGDADTNYVGKFKGRVTITADKSTTTAYMELSSLRSEDTAVYFCAKSGTFNFGNYRWYFDVWGKGTTVTVSS
VL: AIQLTQSPSSLSASVGDRVTITCRVSENIYSHLAWYQQKPGKAPKLLIYAATNLALGVPSRFSGSGSGTDYTLTISSLQPEDFATYYCQLFWGPPLTFGGGTKVEIKR
notes: Humanized antibody from a mouse hybridoma, tested as human IgG4 (detected with anti-human kappa); Some assays used labelled lots (DyLight 650, AF647, biotin, DyL488); also called 6G3 antibody; APE10840.03
B1: the figures for the EC50 in assay [1] and in assay [2] were approximately 2.4 nM and 3.23 nM, respectively.
